Measurements from patent publication US20220064312A1.

Target: human CCR8 (human) (UniProt P51685)
Test: cell-based or functional assay

human CCR8 (human), sequence (P51685 whole entry): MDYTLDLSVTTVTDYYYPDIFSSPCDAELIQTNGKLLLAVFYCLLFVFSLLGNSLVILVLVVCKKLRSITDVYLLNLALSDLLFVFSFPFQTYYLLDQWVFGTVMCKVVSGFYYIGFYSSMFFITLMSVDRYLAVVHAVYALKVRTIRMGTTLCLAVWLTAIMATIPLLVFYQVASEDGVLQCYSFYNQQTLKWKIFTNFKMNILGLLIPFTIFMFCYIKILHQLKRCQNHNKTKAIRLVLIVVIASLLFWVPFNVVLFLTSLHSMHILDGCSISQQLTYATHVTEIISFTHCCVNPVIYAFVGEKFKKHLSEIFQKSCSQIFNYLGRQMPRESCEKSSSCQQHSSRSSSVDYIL

| IC50 ratio (WT IC50/mutant IC50) | IC50 (n.d.: 10 nM or more) [nM] | Binder |
| --- | --- | --- |
| 0.54 |  | h10A11 IGKV4-1/IGHV3-73 K64R (antibody, name in Kabat numbering, V domains shown) VH: EVQLVESGGGLVQPGGSLKLSCAASGFAFNTYALYWVRQASGKGLEWVGRIRSKSNNYATYYADSVRDRFTISRDDSKNTAYLQMNSLKTEDTAVYYCTRARFYYSDYGYAMDYWGQGTLVTVSS VL: DIVMTQSPDSLAVSLGERATINCRSSKSLLHSNGNTYLYWYQQKPGQPPKLLIYRMSNLASGVPDRFSGSGSGTDFTLTISSLQAEDVAVYYCMQHLEYPLTFGQGTKLEIKR |
|  | > 10 | h10A11 IGKV4-1/IGHV3-73 R96K (antibody, name in Kabat numbering, V domains shown) VH: EVQLVESGGGLVQPGGSLKLSCAASGFAFNTYALYWVRQASGKGLEWVGRIRSKSNNYATYYADSVKDRFTISRDDSKNTAYLQMNSLKTEDTAVYYCTRAKFYYSDYGYAMDYWGQGTLVTVSS VL: DIVMTQSPDSLAVSLGERATINCRSSKSLLHSNGNTYLYWYQQKPGQPPKLLIYRMSNLASGVPDRFSGSGSGTDFTLTISSLQAEDVAVYYCMQHLEYPLTFGQGTKLEIKR |
|  | > 10 | h10A11 IGKV4-1/IGHV3-73 F97L (antibody, name in Kabat numbering, V domains shown) VH: EVQLVESGGGLVQPGGSLKLSCAASGFAFNTYALYWVRQASGKGLEWVGRIRSKSNNYATYYADSVKDRFTISRDDSKNTAYLQMNSLKTEDTAVYYCTRARLYYSDYGYAMDYWGQGTLVTVSS VL: DIVMTQSPDSLAVSLGERATINCRSSKSLLHSNGNTYLYWYQQKPGQPPKLLIYRMSNLASGVPDRFSGSGSGTDFTLTISSLQAEDVAVYYCMQHLEYPLTFGQGTKLEIKR |
| 1.3 |  | h10A11 IGKV4-1/IGHV3-73 D65E (antibody, name in Kabat numbering, V domains shown) VH: EVQLVESGGGLVQPGGSLKLSCAASGFAFNTYALYWVRQASGKGLEWVGRIRSKSNNYATYYADSVKERFTISRDDSKNTAYLQMNSLKTEDTAVYYCTRARFYYSDYGYAMDYWGQGTLVTVSS VL: DIVMTQSPDSLAVSLGERATINCRSSKSLLHSNGNTYLYWYQQKPGQPPKLLIYRMSNLASGVPDRFSGSGSGTDFTLTISSLQAEDVAVYYCMQHLEYPLTFGQGTKLEIKR |
| 0.8 |  | h10A11 IGKV4-1/IGHV3-73 Y99F (antibody, name in Kabat numbering, V domains shown) VH: EVQLVESGGGLVQPGGSLKLSCAASGFAFNTYALYWVRQASGKGLEWVGRIRSKSNNYATYYADSVKDRFTISRDDSKNTAYLQMNSLKTEDTAVYYCTRARFYFSDYGYAMDYWGQGTLVTVSS VL: DIVMTQSPDSLAVSLGERATINCRSSKSLLHSNGNTYLYWYQQKPGQPPKLLIYRMSNLASGVPDRFSGSGSGTDFTLTISSLQAEDVAVYYCMQHLEYPLTFGQGTKLEIKR |
| 0.99 |  | h10A11 IGKV4-1/IGHV3-73 Y102F (antibody, name in Kabat numbering, V domains shown) VH: EVQLVESGGGLVQPGGSLKLSCAASGFAFNTYALYWVRQASGKGLEWVGRIRSKSNNYATYYADSVKDRFTISRDDSKNTAYLQMNSLKTEDTAVYYCTRARFYYSDYGYAMDFWGQGTLVTVSS VL: DIVMTQSPDSLAVSLGERATINCRSSKSLLHSNGNTYLYWYQQKPGQPPKLLIYRMSNLASGVPDRFSGSGSGTDFTLTISSLQAEDVAVYYCMQHLEYPLTFGQGTKLEIKR |
| 0.07 |  | h10A11 IGKV4-1/IGHV3-73 Y98F (antibody, name in Kabat numbering, V domains shown) VH: EVQLVESGGGLVQPGGSLKLSCAASGFAFNTYALYWVRQASGKGLEWVGRIRSKSNNYATYYADSVKDRFTISRDDSKNTAYLQMNSLKTEDTAVYYCTRARFFYSDYGYAMDYWGQGTLVTVSS VL: DIVMTQSPDSLAVSLGERATINCRSSKSLLHSNGNTYLYWYQQKPGQPPKLLIYRMSNLASGVPDRFSGSGSGTDFTLTISSLQAEDVAVYYCMQHLEYPLTFGQGTKLEIKR |
|  | > 10 | h10A11 IGKV4-1/IGHV3-73 D101E (antibody, name in Kabat numbering, V domains shown) VH: EVQLVESGGGLVQPGGSLKLSCAASGFAFNTYALYWVRQASGKGLEWVGRIRSKSNNYATYYADSVKDRFTISRDDSKNTAYLQMNSLKTEDTAVYYCTRARFYYSDYGYAMEYWGQGTLVTVSS VL: DIVMTQSPDSLAVSLGERATINCRSSKSLLHSNGNTYLYWYQQKPGQPPKLLIYRMSNLASGVPDRFSGSGSGTDFTLTISSLQAEDVAVYYCMQHLEYPLTFGQGTKLEIKR |
| 0.07 |  | h10A11 IGKV4-1/IGHV3-73 G100cA (antibody, name in Kabat numbering, V domains shown) VH: EVQLVESGGGLVQPGGSLKLSCAASGFAFNTYALYWVRQASGKGLEWVGRIRSKSNNYATYYADSVKDRFTISRDDSKNTAYLQMNSLKTEDTAVYYCTRARFYYSDYAYAMDYWGQGTLVTVSS VL: DIVMTQSPDSLAVSLGERATINCRSSKSLLHSNGNTYLYWYQQKPGQPPKLLIYRMSNLASGVPDRFSGSGSGTDFTLTISSLQAEDVAVYYCMQHLEYPLTFGQGTKLEIKR |
| 0.75 |  | h10A11 IGKV4-1/IGHV3-73 Y100bF (antibody, name in Kabat numbering, V domains shown) VH: EVQLVESGGGLVQPGGSLKLSCAASGFAFNTYALYWVRQASGKGLEWVGRIRSKSNNYATYYADSVKDRFTISRDDSKNTAYLQMNSLKTEDTAVYYCTRARFYYSDFGYAMDYWGQGTLVTVSS VL: DIVMTQSPDSLAVSLGERATINCRSSKSLLHSNGNTYLYWYQQKPGQPPKLLIYRMSNLASGVPDRFSGSGSGTDFTLTISSLQAEDVAVYYCMQHLEYPLTFGQGTKLEIKR |
| 0.3 |  | h10A11 IGKV4-1/IGHV3-73 D100aE (antibody, name in Kabat numbering, V domains shown) VH: EVQLVESGGGLVQPGGSLKLSCAASGFAFNTYALYWVRQASGKGLEWVGRIRSKSNNYATYYADSVKDRFTISRDDSKNTAYLQMNSLKTEDTAVYYCTRARFYYSEYGYAMDYWGQGTLVTVSS VL: DIVMTQSPDSLAVSLGERATINCRSSKSLLHSNGNTYLYWYQQKPGQPPKLLIYRMSNLASGVPDRFSGSGSGTDFTLTISSLQAEDVAVYYCMQHLEYPLTFGQGTKLEIKR |
| 0.72 |  | h10A11 IGKV4-1/IGHV3-73 M100fL (antibody, name in Kabat numbering, V domains shown) VH: EVQLVESGGGLVQPGGSLKLSCAASGFAFNTYALYWVRQASGKGLEWVGRIRSKSNNYATYYADSVKDRFTISRDDSKNTAYLQMNSLKTEDTAVYYCTRARFYYSDYGYALDYWGQGTLVTVSS VL: DIVMTQSPDSLAVSLGERATINCRSSKSLLHSNGNTYLYWYQQKPGQPPKLLIYRMSNLASGVPDRFSGSGSGTDFTLTISSLQAEDVAVYYCMQHLEYPLTFGQGTKLEIKR |
| 0.64 |  | h10A11 IGKV4-1/IGHV3-73 S100T (antibody, name in Kabat numbering, V domains shown) VH: EVQLVESGGGLVQPGGSLKLSCAASGFAFNTYALYWVRQASGKGLEWVGRIRSKSNNYATYYADSVKDRFTISRDDSKNTAYLQMNSLKTEDTAVYYCTRARFYYTDYGYAMDYWGQGTLVTVSS VL: DIVMTQSPDSLAVSLGERATINCRSSKSLLHSNGNTYLYWYQQKPGQPPKLLIYRMSNLASGVPDRFSGSGSGTDFTLTISSLQAEDVAVYYCMQHLEYPLTFGQGTKLEIKR |
| 0.49 |  | h10A11 IGKV4-1/IGHV3-73 A100eV (antibody, name in Kabat numbering, V domains shown) VH: EVQLVESGGGLVQPGGSLKLSCAASGFAFNTYALYWVRQASGKGLEWVGRIRSKSNNYATYYADSVKDRFTISRDDSKNTAYLQMNSLKTEDTAVYYCTRARFYYSDYGYVMDYWGQGTLVTVSS VL: DIVMTQSPDSLAVSLGERATINCRSSKSLLHSNGNTYLYWYQQKPGQPPKLLIYRMSNLASGVPDRFSGSGSGTDFTLTISSLQAEDVAVYYCMQHLEYPLTFGQGTKLEIKR |
| 0.55 |  | h10A11 IGKV4-1/IGHV3-73 Y100dF (antibody, name in Kabat numbering, V domains shown) VH: EVQLVESGGGLVQPGGSLKLSCAASGFAFNTYALYWVRQASGKGLEWVGRIRSKSNNYATYYADSVKDRFTISRDDSKNTAYLQMNSLKTEDTAVYYCTRARFYYSDYGFAMDYWGQGTLVTVSS VL: DIVMTQSPDSLAVSLGERATINCRSSKSLLHSNGNTYLYWYQQKPGQPPKLLIYRMSNLASGVPDRFSGSGSGTDFTLTISSLQAEDVAVYYCMQHLEYPLTFGQGTKLEIKR |
